Test system: OVA
Assay: OVA-specific serum antibody ELISA, QWT-iscoms with CT or MPL (Example 7)
Format: in vivo, NMRI mice
Conditions: 5 μg OVA without adjuvant
Protocol: Sera were collected 3 weeks after priming and 2 weeks after the booster injection.
Serum antibody determination, including total IgG, and subclasses IgG1 and IgG2a, was carried in out in ELISA as described in example 1.

B1: OVA alone: ovalbumin, weak model antigen, given without adjuvant (protein, UniProt P01012 2-386, looked up)
Ovalbumin: GSIGAASMEFCFDVFKELKVHHANENIFYCPIAIMSALAMVYLGAKDSTRTQINKVVRFDKLPGFGDSIEAQCGTSVNVHSSLRDILNQITKPNDVYSFSLASRLYAEERYPILPEYLQCVKELYRGGLEPINFQTAADQARELINSWVESQTNGIIRNVLQPSSVDSQTAMVLVNAIVFKGLWEKAFKDEDTQAMPFRVTEQESKPVQMMYQIGLFRVASMASEKMKILELPFASGTMSMLVLLPDEVSGLEQLESIINFEKLTEWTSSNVMEERKIKVYLPRMKMEEKYNLTSVLMAMGITDVFSSSANLSGISSAESLKISQAVHAAHAEINEAGREVVGSAEAGVDAASVSEEFRADHPFLFCIKHIATNAVLFFGRCVSP
For B1, the “serum IgG after booster” value was “low serum levels of IgG”.
